Results taken from patent publication US20200392236A1 (JUNO THERAPEUTICS, published 2020).
Where a chain is given by its changes, count along the chain named. In names and notes the source's numbering stands.

T1: BCMA peptide 30SNTPPLTCQR39 (human)
T1 construct: Peptide of the CLIPS library; recognised in a linear form
T1 peptide: SNTPPLTCQR

T2: human BCMA (B-cell maturation antigen) on cells (human, UniProt Q02223 1-184)
T2 construct: whole, on cells; also called hBCMA; hBCMA/HEK293 cell line
T2 sequence (looked up): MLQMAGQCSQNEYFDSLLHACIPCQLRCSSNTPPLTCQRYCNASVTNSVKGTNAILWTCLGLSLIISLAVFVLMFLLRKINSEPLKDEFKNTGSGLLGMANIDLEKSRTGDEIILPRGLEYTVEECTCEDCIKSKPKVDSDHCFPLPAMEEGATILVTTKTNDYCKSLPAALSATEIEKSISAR

B1: BCMA-25 anti-BCMA scFv (scFv)
scFv: EVQLVQSGGGLVQPGRSLRLSCTASGFTFGDYAMSWFRQAPGKGLEWVGFIRSKAYGGTTEYAASVKGRFTISRDDSKSIAYLQMNSLKTEDTAVYYCAAWSAPTDYWGQGTLVTVSSGGGGSGGGGSGGGGSDIQMTQSPAFLSASVGDRVTVTCRASQGISNYLAWYQQKPGNAPRLLIYSASTLQSGVPSRFRGTGYGTEFSLTIDSLQPEDFATYYCQQSYTSRQTFGPGTRLDIK
notes: VH-(G4S)3-VL scFv
B2: BCMA-1 anti-BCMA scFv (scFv)
scFv: QVQLVQSGGGLVQPGRSLRLSCTASGFTFGDYAMSWFRQAPGKGLEWVGFIRSKAYGGTTEYAASVKGRFTISRDDSKSIAYLQMNSLKTEDTAVYYCAAWSAPTDYWGQGTLVTVSSGGGGSGGGGSGGGGSDIVMTQSPDSLSVSPGERATISCKSSQSVLSTSNNKNYLAWYQQKPGQPPRLLLYWASTREAGVPDRFSGSGSGTDFTLTISSLQAEDVAVYYCQQYFSSPYTFGHGTKLEIK
notes: VH-(G4S)3-VL scFv
B3: BCMA-5 anti-BCMA scFv (scFv)
scFv: QVQLVQSGGGLVQPGRSLRLSCTASGFTFGDYAMSWFRQAPGKGLEWVGFIRSKAYGGTTEYAASVKGRFTISRDDSKSIAYLQMNSLKTEDTAVYYCAAWSAPTDYWGQGTLVTVSSGGGGSGGGGSGGGGSDIVMTQSPDSLAVSLGERATINCKSSQSVLYSSNNKNYLAWYQQKPGQPPKLLIYWASTRESGVPDRFSGSGSGTDFTLTISSLQAEDVAVYYCQQYYSTPWTFGQGTKVDIK
notes: VH-(G4S)3-VL scFv
B4: BCMA-23 anti-BCMA scFv (scFv)
scFv: EVQLVESGGGLVKPGGSLRLSCAASGFTFSDYYMSWIRQAPGKGLEWVSYISSSGSTIYYADSVKGRFTISRDNAKNSLYLQMNSLRAEDTAVYYCAKVDGDYTEDYWGQGTLVTVSSGGGGSGGGGSGGGGSQSALTQPASVSGSPGQSITISCTGSSSDVGKYNLVSWYQQPPGKAPKLIIYDVNKRPSGVSNRFSGSKSGNTATLTISGLQGDDEADYYCSSYGGSRSYVFGTGTKVTVL
notes: BCMA-22 with the first residue of CDR-L3 (cysteine) replaced by serine
B5: BCMA-21 anti-BCMA scFv (scFv)
scFv: EVQLVESGGGLVKPGGSLKLSCAASGFTFSDYYMSWIRQAPGKGLEWVSYISSSGSTIYYADSVKGRFTISRDNAKNSLYLQMNSLRAEDTAVYYCAKVDGGYTEDYWGQGTLVTVSSGGGGSGGGGSGGGGSQSVLTQPPSASGTPGQRVTISCSGSGSNIGSNDVSWYQQIPGTAPKLLIYWNDQRPSGVPDRFSGSKSGISASLAISGLRSEDEADYYCAAWDDSLNGYVFGTGTKVTVL
notes: VH-(G4S)3-VL scFv
B6: BCMA-20 anti-BCMA scFv (scFv)
scFv: EVQLLESGGGLVQPGRSLRLSCAASGFTFDDYAMHWVRQAPGKGLEWVSGISWNSGSIGYADSVKGRFTISRDNAKNSLYLQMNSLRAEDTALYYCAKGGLGITPYYFDYWGQGTLVTVSSGGGGSGGGGSGGGGSQPVLTQPPSASGTPGQRVTISCSGGKTVNWFRQVPGTAPQLLIYSNDQRPSGVPDRFSGSKSGSSASLDISGLQSEDEAYYYCGSWDDSLNAWVFGGETKLTVL
notes: VH-(G4S)3-VL scFv
B7: BCMA-18 anti-BCMA scFv (scFv)
scFv: EVQLLESGGGLVQPGGSLRLSCAASGFTFSSYWMSWHRQAPGKGPEWVAHINQDGSEKYYVDSVKGRFTISRDNAESSLYLQMNSLRAEDTAVYYCARWLAVTNWGQGTLVTVSSGGGGSGGGGSGGGGSQSVLTQPPSASGTPGQRVTISCSGSGSNIGSNDVSWYQQIPGTAPKLLIYWNDQRPSGVPDRFSGSKSGTSASLAISGLRSEDEADYYCAAWDDSLNGWVFGGGTKLTVL
notes: VH-(G4S)3-VL scFv
B8: BCMA-22 anti-BCMA scFv (scFv)
scFv: B4 scFv with S224C
notes: VH-(G4S)3-VL scFv
B9: BCMA-9 anti-BCMA scFv (scFv)
scFv: EVQLVQSGGGLVKPGGSLRLSCAASGFTFSDYYMSWIRQAPGKGLEWVSYISSSGSTIYYADSVKGRFTISRDNAKNSLYLQMNSLRAEDTAVYYCARVDGDYVDDYWGQGTLVTVSSGGGGSGGGGSGGGGSSYELTQPPSVSVAPGQTARVTCGANNIGSKSVHWYQQKPGQAPMLVVYDDDDRPSGIPERFSGSNSGNTATLTISGVEAGDEADYFCHVWDRSRDHYVFGTGTKLTVL
notes: VH-(G4S)3-VL scFv
B10: BCMA-7 anti-BCMA scFv (scFv)
scFv: QVQLVQSGGGLVQPGRSLRLSCTASGFTFGDYAMSWFRQAPGKGLEWVGFIRSKAYGGTTEYAASVKGRFTISRDDSKSIAYLQMNSLKTEDTAVYYCAAWSAPTDYWGQGTLVTVSSGGGGSGGGGSGGGGSVIQLTQSPSSLSASVGDRVTITCRASQDIGDYLAWFQQRPGKAPKSLIYVASTLQSGVPSRFSGSGSGTHFTLTINSLQPEDFATYYCQQYHSHPWTFGPGTKVDIK
notes: VH-(G4S)3-VL scFv
B11: BCMA-4 anti-BCMA scFv (scFv)
scFv: QVQLVQSGGGLVQPGRSLRLSCTASGFTFGDYAMSWFRQAPGKGLEWVGFIRSKAYGGTTEYAASVKGRFTISRDDSKSIAYLQMNSLKTEDTAVYYCAAWSAPTDYWGQGTLVTVSSGGGGSGGGGSGGGGSAIRMTQSPSSLSASLGDRVTITCRASQDIRNSLAWYQQRPGKAPKLLLSAASRLESGVPSRFSGTTSGAEYALSISSLQPEDVASYFCQQYYSLPLSFGGGTKVEIK
notes: VH-(G4S)3-VL scFv
B12: BCMA-10 anti-BCMA scFv (scFv)
scFv: EVQLVESGGGLVKPGGSLRLSCAASGFPFSDYYMSWIRQAPGKGLEWVSYISSSGSTIYYADSVKGRFTISRDNAKNSLYLQMNSLRAEDTAVYYCAKVDGPPSFDIWGQGTMVTVSSGGGGSGGGGSGGGGSSYVLTQPPSVSVAPGQTARITCGGNNIERKNVHWYQQKPGQAPVPVVYDDSDRASGIPERFSASNSGNTATLTISGAQATDEAEYYCQAWDSSSTLYVFGTGTKLTVL
notes: VH-(G4S)3-VL scFv
B13: BCMA-2 anti-BCMA scFv (scFv)
scFv: EVQLVESGGGLVKPGGSLRLSCAASGFTFSDYYMSWIRQAPGKGLEWVSYISSSGSTIYYADSVKGRFTISRDNAKNSLYLQMNSLRAEDTAVYYCAKVDGPPSSDIWGQGTMVTVSSGGGGSGGGGSGGGGSEIVMTQSPATLSVSPGETATLSCRASQSIKTNLAWYQQKPGQAPRLLIYAASTRATGIPDRFSGSGSGTDFTLTITRLEPEDFAVYYCQQYGSSPTFGRGTKLEIK
notes: VH-(G4S)3-VL scFv
B14: BCMA-8 anti-BCMA scFv (scFv)
scFv: B3 scFv with W235Y, V243L, D244E
notes: VH-(G4S)3-VL scFv
B15: BCMA-31 anti-BCMA scFv (scFv)
scFv: B3 scFv with Q1E, I135V, N155S, Y164N, L172V, Q176K, L186V, Y188S, W235Y, V243L
notes: VH-(G4S)3-VL scFv
B16: BCMA-3 anti-BCMA scFv (scFv)
scFv: B3 scFv with A145V, Y164H, S232T, W235L, Q239G, D244E
notes: VH-(G4S)3-VL scFv
B17: BCMA-12 anti-BCMA scFv (scFv)
scFv: EVQLVESGGGLVKPGGSLRLSCAASGFTFSDYYMSWIRQAPGKGLEWVSYISSSGSTIYYADSVKGRFTISRDNAKNSLYLQMNSLRAEDTAVYYCAKVDGPPSFDIWGQGTMVTVSSGGGGSGGGGSGGGGSQSALTQPPSVSAAPGQKVTISCSGSRSNIGNNYVSWYQQLPGTAPKLLIYDNAKRPSGIPDRFSGSKSGTSATLDIAGLQTGDEADYYCQVWDSSSDHWVFGGGTKLTVL
notes: VH-(G4S)3-VL scFv
B18: BCMA-32 anti-BCMA scFv (scFv)
scFv: QVQLVESGGGLVKPGGSLRLSCAASGFTFSDYYMSWIRQAPGKGLEWVSYISSSGSTIYYADSVKGRFTISRDNAKNSLYLQMNSLRAEDTAVYYCAKVDGPPSFDIWGQGTMVTVSSGGGGSGGGGSGGGGSQTVVTQPPSVSVAPGQTARITCGGNNIGSKGVHWYRQRPGQAPEVVIYDDSDRPSGVPDRFSGSNSGNTATLTVRGVEAGDEADYYCQVWDSSSDHWVFGGGTKLTVL
notes: VH-(G4S)3-VL scFv

Target: T1, BCMA peptide 30SNTPPLTCQR39
Assay: CLIPS peptide array ELISA
Experimental: Epitopes recognized, e.g., specifically bound to, by exemplary anti-BCMA scFv clones (BCMA-1, BCMA-5, BCMA-9, BCMA-23, BCMA-25, BCMA-26, BCMA-52 and BCMA-55 anti-BCMA scFvs), were assessed using full discontinuous epitope mapping by Chemical Linkage of Peptides onto Scaffolds (CLIPS; Pepscan Presto BV, Lelystad, The Netherlands; see, e.g., Timmerman et al., (2007) J. Mol. Recognit. 20: 283-329). Mapping was carried out using anti-BCMA scFv clones, such as those fused with mouse Fc (scFv-mFc).
Linear and conformational peptide libraries of amino acid residues 1-54 of human BCMA (set forth as amino acid residues 1-54 of SEQ ID NO:367) were generated based on a combinatorial matrix design. Linear peptides and structural mimetics including single loop, α-helix, β-turn, combinatorial and linear disulfide bridge mimics, and discontinuous epitope mimics were used, along with positive and negative control peptides, on an amino-functionalized solid support.
Affinities for binding to the peptides in the epitope library were determined using ELISA. The peptide arrays were incubated with a solution containing the scFv overnight at 4° C. Affinity information was used in iterative screens to define the sequence and conformation of epitopes. Heat maps of affinity information for two or more loops were generated.

binding result	Binder
binds	B1
binds	B2
binds	B3
binds	B4

Each binder was assayed against T2, human BCMA (B-cell maturation antigen) … (assay: flow cytometry, hBCMA-expressing HEK293 against parental HEK293 cells).
Experimental: Binding of exemplary scFv clones to hBMCA-expressing HEK293 cells was assessed and binding was compared to parental HEK293 cells.

fold selective binding (hBCMA-expressing HEK293 over parental HEK293 cells)	Binder
3.4 fold	B5
10.8 fold	B6
2.2 fold	B7
7.5 fold	B8

The binders below were run against T2, human BCMA (B-cell maturation antigen) … (assay: flow cytometry, hBCMA-overexpressing HEK293 compared with OPM2 and RPMI-8226 cells).
Experimental: Binding of exemplary scFv clones to hBMCA-overexpressing HEK293 cells as compared to OPM2 and RPMI-8226 cell lines that express moderate levels of endogenous BCMA was assessed.

binding result	Binder
binds	B9
binds	B10
binds	B11
binds	B12
binds	B13
binds	B14
binds	B2
binds	B15
binds	B16
binds	B3
binds	B17
binds	B18
